Test results: the supplement of paper PMC9170038

The sequences below were run on MS2 coat protein (assay: apparent KD of MS2 coat protein, switch OFF state (with FMN for OFF switches, without FMN for ON switches); designed switch direction (-1 OFF switch, 1 ON switch): 1; higher = weaker reporter binding). Settings: FMN input: 0 or 200 uM; Eterna round: R93 (includes R88 designs).
Outline: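 Designed RNA switches were made by on-chip transcription from Illumina sequencing clusters and then titrated with SNAP-549-labelled MS2 coat protein. Twofold steps ran from 0.7 or 1.5 nM to 3 µM, each lasting 0.8–1.5 h early and 10–20 min late, in 100 mM Tris-HCl pH 7.5, 80 mM KCl, 4 mM MgCl2, without or with constant ligand. Apparent KD is the per-design median of normalised cluster binding-curve fits.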

In order of rising “apparent KD of MS2 coat protein” value:
1. AGAAAUAAAAGAGAGGAUAUCCAAAAUAAAACAUGAGGAUCACCCAUGUGUACGAAAGUACAAUGGGAGAAGGCUCAAAAUAAAG [80% More Helter Skelter 2 + Hairpin]  6.54 nM
2. AAAAAAAAAAGUCAGGAUAUACAAAUUUUUACAUGAGGAUCACCCAUGUUAAAGAAAAAAAAAAAGUAGAAGGGACAAAAAAAAAA [Same State 2 - Omei 2]  15.4 nM
3. AAAAGACAUGAGGAUCACCCAUGUUAAGACGUAGGAGGAUAUGUCGUGAAAAAAGACUUGACAGAAGGCCUGUGUC [SS1 - 38]  20.4 nM
4. AAAUUACAUGAGGAUCACCCAUGUAGCGACGUGACAGGAUAUGUGGGUGAAAAUAGCAUGACAGAAGGGUCCCGUA [SameState1 Malc#40]  23.1 nM
5. AAAAGACAUGAGGAUCACCCAUGUCAAAAGACAUGAGGAUAUGUACAGACUUCGGUCUGUACAGAAGGCAUGAAAA [SS1 - 1066]  23.6 nM
6. GAAAUACAUGAGGAUCACCCAUGUUAGGUAAAACAAGGAUAUCUAGAUAAAUAAAAAUAUAGAGAAGGUGUAUAAA [JR_SS001_Sub206]  25.1 nM
7. AGGAAACAUGAGGAUCACCCAUGUAAGAUAUAUACAGGAUAUGCGAAAAGAAACAAAGAAGCAGAAGGGUAAAAAA [75%, Ex sub1, 13]  25.5 nM
8. AAAUAACAUGCGCAGGAUAUGAGACCGAUAACAUGAGGAUCACCCAUGUUAAGGAAGAAAUAAAAUCAGAAGGGUGGGUGGACCU [Aatteri]  26.6 nM
9. AAUCCAAAUAGUUAGGAUAUGGGAAUUAAGACAUGAGGAUCACCCAUGUCAUUAAAACAAGUUAACCAGAAGGGACAGGGUGAAA [JR_SS002_Sub208]  26.6 nM
10. CGGAGACAUGAGGAUCACCCAUGUGAGAAGAGGCGAGGAUAUCGAAAGAAAGAAGAGAAACGAGAAGGCGCGAGAU [salish99-SS1-069]  29.8 nM
11. AAAAGACAUGAGGAUCACCCAUGUAAAAACAUAGGAGGAUAUGUCGUGAAAAAAGACUUGGCAGAAGGCCUAUGUC [SS1 - 44]  30.7 nM
12. AGAAAUAAAACACAGGAUAUCCAAAAGAAAACAUGAGGAUCACCCAUGUAAAGAAAAUAAAAAUGGGAGAAGGGUGAAAAUAAGA [Mat - Same State 2 - JL mod - D15]  31.5 nM
13. GUGUAAAGAAUCGAGGAUAUCCUGAAAAGCACAUGAGGAUCACCCAUGUAAGAGCGAGAAUAAUGGGAGAAGGCGAGUUAUCGGU [JR_SS002_Sub1711]  33 nM
14. AAAACACAUGAGGAUCACCCAUGUGCAAAAUUCGCAGGAUAUUUCUCGAUUAAAUGAUAGGAAGAAGGGUGAUAAA [Nob's Hobby 35 - Jieux - Same State 1]  33.7 nM
15. GAAGACAUAGUACAGGAUAUAUGAAUAGUCACAUGAGGAUCACCCAUGUCCAUUUAUAUGGGCACAUAGAAGGGUGGUAGUUGUC [Mat - Same state - Malcolm Mod - D125]  35.3 nM
16. AGAAAUAAAUGAGAGGAUAUCCUAAAGAAAACAUGAGGAUCACCCAUGUAAAAGAAAAUAAAAUGGGAGAAGGCUCAUAAUAAAG [Starry Same State 2 (jandersonlee round 1 mod)]  35.5 nM
17. AGAAAUAAAAGGCAGGAUAUCCAAAAGAAAACAUGAGGAUCACCCAUGUAAAAGAAAAUAAAGUGGGAGAAGGGCCAAAAUAAAG [My design (73%) + Space bases]  36.5 nM
18. AGGAGACAUGAGGAUCACCCAUGUGAGAAGAGGCGAGGAUAUCGAAAGAAAGAAAGAAAACGAGAAGGCGCGAGAA [salish99-SS1-016]  42.8 nM
19. CAGAGACAUGAGGAUCACCCAUGUAGGAUUAUGGGAGGAUAUACAAAGACGAGAGUCAGAGUAGAAGGCCUAGGCC [salish99-ss1-145]  43.2 nM
20. AAAAAUAAAACACAGGAUAUCCAAAAGAAAACAUGAGGAUCACCCAUGUAAAGAAAAUAAAAAUGGGAGAAGGGUGAAAAUAAGA [Mat - Same State 2 - JL mod - D21]  52.6 nM
21. UAGAGACAUGAGGAUCACCCAUGUAGGAUUAUGGGAGGAUAUACAAAGACGAGAGUCAGAGUAGAAGGCCUAGGAC [salish99-ss1-136(!)]  60.1 nM
22. AAAGACAUGGUGCAGGAUAUAUUAAUAGUCACAUGAGGAUCACCCAUGUUCAGAUAUCUGAACGAGUAGAAGGGCGAUGAAAAAA [SameState2 Malc#5]  61.9 nM
23. AAGAAACAUGAGGAUCACCCAUGUGAGAUAAACACAGGAUAUGCGAAAAGAAAUAAAUAAGCAGAAGGGUGAAGAA [Mat - Same State 1 - Tesla mod - 70]  62.6 nM
24. AUAAAAUAAAAGGAGGAUAUCCUUAAUAAAACAUGAGGAUCACCCAUGUAAAAAAUAAUAAAAUGGGAGAAGGCCUAAAAUAAAU [SS2 M 26]  64.2 nM
25. GGGAGACAUGAGGAUCACCCAUGUGAGAAGAGGCGAGGAUAUCGAAAGAAAGAAGAGAAACGAGAAGGCGCGAGUA [salish99-SS1-050]  65.5 nM
26. AGAAAUAAAAGAGAGGAUAUCCAAAAGAAAACAUGAGGAUCACCCAUGUAAAAGAAAAUAAAAUGGGAGAAGGCUCAAAAUAAAGA [Helter Skelter 2]  69.7 nM
27. AGGAAACAUGAGGAUCACCCAUGUAAAAAAAUGGGAGGAUAUACUAGAAGAAACAAAAUAGUAGAAGGCCUAAAAA [75%, Ex sub1, 27]  74.9 nM
28. UCAGUGCCGACGAAGGAUAUAGCGGGUGAGACAUGAGGAUCACCCAUGUAUGCAGAACUCAUCCUCUAGAAGGUUGAGACGGCAA [Onaaror]  84.3 nM
29. AACUACAUUAUGAAGGAUAUCCACAUCAAGACAUGAGGAUCACCCAUGUAUACUUAGAUCAUACAGGAGAAGGUCAAGGGUGAAU [JR_SS002_Sub1207]  89.2 nM
30. UACACGCUGGCGCAGGAUAUGUCGCUGGUGACAUGAGGAUCACCCAUGUAUACCAUUGCGGUUAAGCAGAAGGGUGAGAAGCGUG [Bidibeso]  89.8 nM
31. AGCACGUGAUUGGAGGAUAUGUUGUAAGCAACAUGAGGAUCACCCAUGUCUGAGGCUGAAAAGCAGCAGAAGGCCGAUACAACCA [SS2-1.3]  110 nM
32. AAUAUACAUGAGGAUCACCCAUGUUUUGGUGGGUCAGGAUAUAAAAACAAUUACAUAAAGUUAGAAGGGACAAAUA [JR_SS001_Sub004]  121 nM
33. AAAUAAAUGACUGAGGAUAUAUCGAAGAAGACAUGAGGAUCACCCAUGUGAUAAUAAAAAGGGUGGUAGAAGGUAGUCAACAAAC [Mod 8 of Pariah 4 by Hyphema in Round 1]  122 nM
34. GUAAGACAUGAGGAUCACCCAUGUAUGCGUCAGCAAGGAUAUGGGAAUAAAAGACAGAAACCAGAAGGUGCUGUUG [Enqudi]  153 nM
35. AAAAUACAUGAGGAUCACCCAUGUGAAAAUAUGGGAGGAUAUACAAAAACGAAAGUAAAAGUAGAAGGCCUAAAAA [SS! 1 MT 1]  185 nM
36. ACAAAACAUGAGGAUCACCCAUGUCGACUAAAUCAAGGAUAUGGGAAUGCGAAAGCAAAGCCAGAAGGUGAGGUCC [Xeorarbiar]  185 nM
37. AAGAAACAUGAGGAUCACCCAUGUGAGAAUAUGGGAGGAUAUACAAGGACGUAAGUCAAGGUAGAAGGCCUAAGAA [Mat - Same State 1 - Meechl mod - D139]  200 nM
38. GAAAAACAUGAGGAUCACCCAUGUGAGAAUAUGGGAGGAUAUUCAAAGACGAAAGUCAAAGAAGAAGGCCUAAAAG [Mat - Same State 1 - Eli mod - 37]  276 nM
39. AGCACGGGAUUGGAGGAUAUGUUGUUUGCAACAUGAGGAUCACCCAUGUCUGAGGCUGAAAAGCAGCAGAAGGCCGAUACAACCA [SS2-1.2]  367 nM
40. GAGGACGUAGGAUAGGAUAUGUGAAUAAUUACAUGAGGAUCACCCAUGUCCAUUUAUAUGGGAACAUAGAAGGGUUUUCGUUAUC [SameState2 Malc#40]  387 nM
41. AAACCACAUGAGGAUCACCCAUGUAAAAAUAUGGGAGGAUAUCGGAAUAAAAUAAAGAAACGAGAAGGCCUAAAAA [59%, Flamingo, 5]  472 nM
42. CAUCACGCGCCUAAGGAUAUGUCUCACAAGACAUGAGGAUCACCCAUGUAGAAUAAAUAAAUGAUGCAGAAGGUGGAGCGCAUGC [Gerixeza]  517 nM
43. AAAAAACAUGAGGAUCACCCAUGUAAAAAAAUGGGAGGAUAUACAAAAAAAAAAAAAAAAGUAGAAGGCCUGAAAA [same state 10]  533 nM
